{
  "source": "patent US8247195",
  "target": "H-NS (Salmonella enterica serovar Typhimurium 14028s) (UniProt A0A0F6B244)",
  "sequence (A0A0F6B244 whole entry)": "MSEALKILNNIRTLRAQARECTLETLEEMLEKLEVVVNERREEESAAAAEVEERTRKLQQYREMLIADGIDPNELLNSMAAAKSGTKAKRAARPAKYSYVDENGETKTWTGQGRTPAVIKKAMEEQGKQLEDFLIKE",
  "conditions": "ChIP/Q-PCR, formaldehyde crosslinked, anti-HA; value given as example of copies recovered per marA copy",
  "data": [
    {"substance": "proV", "values": [
      {"measurement": "binding signal (fold enrichment vs marA)", "result": 53.6}
    ]}
  ]
}
